Source: patent US20220211857A1, “POLYPEPTIDE DERIVATIVE AND PREPARATION METHOD THEREOF” (NINGBO KUNPENG BIOTECH CO., LTD., priority 2019, published 2022)
Where a SMILES comes first, the peptide text is derived from it. The star is where a group is joined. X1 = O=C(O)CCCCCCCCCCCCCCC(=O)NC(CCC(=O)NCCOCCOCC(=O)NCCOCCOCC(=O)NCCn1cc(CCOC(=O)*)nn1)C(=O)O; X6 = O=C(O)CCCCCCCCCCCCCCC(=O)NC(CCC(=O)NCCOCCOCC(=O)NCCOCCOCCn1cc(CCOC(=O)*)nn1)C(=O)O; X3 = O=C(O)CCCCCCCCCCCCCCC(=O)NC(CCC(=O)NCCOCCOCCOCCOCCn1cc(CCOC(=O)*)nn1)C(=O)O

What was measured:
[1] = Pharmacokinetics studies of PTH-1 derivatives in rats (single subcutaneous injection, LC-MS/MS, NCA); format: in vivo; details: rat; for half-lives (in words): experiment of Example 10 repeated in the same way
Protocol: PTH-1 and L6-GFA16-PTH-1 were injected subcutaneously with a single administration of 8.6 μg/kg, respectively. Animals in each group were collected blood at 0 min, 5 min, 15 min, 30 min, 1 h, 2 h, and 4 h after administration. […] Exposure time of drugs in vivo was prolonged and exposure doses were increased.

[2] = general background statement; cited from earlier work
[3] = subcutaneous administration or intramuscular injection, background statement; cited from earlier work

CC[C@H](C)[C@H](NC(=O)[C@H](CCC(=O)O)NC(=O)[C@H](CO)NC(=O)[C@@H](NC(=O)[C@@H](N)CO)C(C)C)C(=O)N[C@@H](CCC(N)=O)C(=O)N[C@@H](CC(C)C)C(=O)N[C@@H](CCSC)C(=O)N[C@@H](Cc1c[nH]cn1)C(=O)N[C@@H](CC(N)=O)C(=O)N[C@@H](CC(C)C)C(=O)NCC(=O)N[C@@H](CCCNC(=N)N)C(=O)N[C@@H](Cc1c[nH]cn1)C(=O)N[C@@H](CC(C)C)C(=O)N[C@@H](CC(N)=O)C(=O)N[C@@H](CO)C(=O)N[C@@H](CCSC)C(=O)N[C@@H](CCC(=O)O)C(=O)N[C@@H](CCCNC(=N)N)C(=O)N[C@H](C(=O)N[C@@H](CCC(=O)O)C(=O)N[C@@H](Cc1c[nH]c2ccccc12)C(=O)N[C@@H](CC(C)C)C(=O)N[C@@H](CCCNC(=N)N)C(=O)N[C@@H](CCCCNC(=O)OCCc1cn(CCOCCOCCOCCOCCNC(=O)CCC(NC(=O)CCCCCCCCCCCCCCC(=O)O)C(=O)O)nn1)C(=O)N[C@@H](CCCNC(=N)N)C(=O)N[C@@H](CC(C)C)C(=O)N[C@@H](CCC(N)=O)C(=O)N[C@@H](CC(=O)O)C(=O)N[C@H](C(=O)N[C@@H](Cc1c[nH]cn1)C(=O)N[C@@H](CC(N)=O)C(=O)N[C@@H](Cc1ccccc1)C(=O)O)C(C)C)C(C)C (some centres unmarked) [L4-GFA16-PTH] (H-SVSEIQLMHNLGRHLNSMERVEWLRK(X3)RLQDVHNF-OH)
half-lives (in words) [1]: significantly prolonged

CC[C@H](C)[C@H](NC(=O)[C@H](CCC(=O)O)NC(=O)[C@H](CO)NC(=O)[C@@H](NC(=O)[C@@H](N)CO)C(C)C)C(=O)N[C@@H](CCC(N)=O)C(=O)N[C@@H](CC(C)C)C(=O)N[C@@H](CCSC)C(=O)N[C@@H](Cc1c[nH]cn1)C(=O)N[C@@H](CC(N)=O)C(=O)N[C@@H](CC(C)C)C(=O)NCC(=O)N[C@@H](CCCNC(=N)N)C(=O)N[C@@H](Cc1c[nH]cn1)C(=O)N[C@@H](CC(C)C)C(=O)N[C@@H](CC(N)=O)C(=O)N[C@@H](CO)C(=O)N[C@@H](CCSC)C(=O)N[C@@H](CCC(=O)O)C(=O)N[C@@H](CCCNC(=N)N)C(=O)N[C@H](C(=O)N[C@@H](CCC(=O)O)C(=O)N[C@@H](Cc1c[nH]c2ccccc12)C(=O)N[C@@H](CC(C)C)C(=O)N[C@@H](CCCNC(=N)N)C(=O)N[C@@H](CCCCNC(=O)OCCc1cn(CCOCCOCCNC(=O)COCCOCCNC(=O)CCC(NC(=O)CCCCCCCCCCCCCCC(=O)O)C(=O)O)nn1)C(=O)N[C@@H](CCCNC(=N)N)C(=O)N[C@@H](CC(C)C)C(=O)N[C@@H](CCC(N)=O)C(=O)N[C@@H](CC(=O)O)C(=O)N[C@H](C(=O)N[C@@H](Cc1c[nH]cn1)C(=O)N[C@@H](CC(N)=O)C(=O)N[C@@H](Cc1ccccc1)C(=O)O)C(C)C)C(C)C (some centres unmarked) [L5-GFA16-PTH] (H-SVSEIQLMHNLGRHLNSMERVEWLRK(X6)RLQDVHNF-OH)
half-lives (in words) [1]: significantly prolonged

CC[C@H](C)[C@H](NC(=O)[C@H](CCC(=O)O)NC(=O)[C@H](CO)NC(=O)[C@@H](NC(=O)[C@@H](N)CO)C(C)C)C(=O)N[C@@H](CCC(N)=O)C(=O)N[C@@H](CC(C)C)C(=O)N[C@@H](CCSC)C(=O)N[C@@H](Cc1c[nH]cn1)C(=O)N[C@@H](CC(N)=O)C(=O)N[C@@H](CC(C)C)C(=O)NCC(=O)N[C@@H](CCCNC(=N)N)C(=O)N[C@@H](Cc1c[nH]cn1)C(=O)N[C@@H](CC(C)C)C(=O)N[C@@H](CC(N)=O)C(=O)N[C@@H](CO)C(=O)N[C@@H](CCSC)C(=O)N[C@@H](CCC(=O)O)C(=O)N[C@@H](CCCNC(=N)N)C(=O)N[C@H](C(=O)N[C@@H](CCC(=O)O)C(=O)N[C@@H](Cc1c[nH]c2ccccc12)C(=O)N[C@@H](CC(C)C)C(=O)N[C@@H](CCCNC(=N)N)C(=O)N[C@@H](CCCCNC(=O)OCCc1cn(CCNC(=O)COCCOCCNC(=O)COCCOCCNC(=O)CCC(NC(=O)CCCCCCCCCCCCCCC(=O)O)C(=O)O)nn1)C(=O)N[C@@H](CCCNC(=N)N)C(=O)N[C@@H](CC(C)C)C(=O)N[C@@H](CCC(N)=O)C(=O)N[C@@H](CC(=O)O)C(=O)N[C@H](C(=O)N[C@@H](Cc1c[nH]cn1)C(=O)N[C@@H](CC(N)=O)C(=O)N[C@@H](Cc1ccccc1)C(=O)O)C(C)C)C(C)C (some centres unmarked) [L6-GFA16-PTH] (H-SVSEIQLMHNLGRHLNSMERVEWLRK(X1)RLQDVHNF-OH)
Tmax ([1]; in vivo, sc, s.c. 8.6 μg/kg, summary of Table 3, read-out: peak times): ~1.6 h

GLP-1: glucose-dependent incretin polypeptide hormone; reference substance of Table 2
biological half-life in vivo [2]: 20 minutes

PTH: parathyroid hormone; PTH-1 is the reference substance of Table 3 (SVSEIQLMHNLGRHLNSMERVEWLRKRLQDVHNF; Amino Acid Sequence of PTH)
half-life [3]: about 12 hours
